From PMC4387718, “In vivo biochemical analyses reveal distinct roles of β-importins and eEF1A in tRNA subcellular traffic” (Genes & Development, 2015)

T1: MORF (His6-HA epitope-ZZ protein A)-tagged Msn5 (S. cerevisiae, UniProt P52918 1-1224)
T1 construct: Msn5, beta-importin family member (yeast exportin-5 homolog), S. cerevisiae; Tagged protein is functional; also called Msn5-M; exportin-5 homolog; source: S. cerevisiae, endogenous promoter on a yeast episomal (YEp) vector, in cell extract
T1 sequence (looked up): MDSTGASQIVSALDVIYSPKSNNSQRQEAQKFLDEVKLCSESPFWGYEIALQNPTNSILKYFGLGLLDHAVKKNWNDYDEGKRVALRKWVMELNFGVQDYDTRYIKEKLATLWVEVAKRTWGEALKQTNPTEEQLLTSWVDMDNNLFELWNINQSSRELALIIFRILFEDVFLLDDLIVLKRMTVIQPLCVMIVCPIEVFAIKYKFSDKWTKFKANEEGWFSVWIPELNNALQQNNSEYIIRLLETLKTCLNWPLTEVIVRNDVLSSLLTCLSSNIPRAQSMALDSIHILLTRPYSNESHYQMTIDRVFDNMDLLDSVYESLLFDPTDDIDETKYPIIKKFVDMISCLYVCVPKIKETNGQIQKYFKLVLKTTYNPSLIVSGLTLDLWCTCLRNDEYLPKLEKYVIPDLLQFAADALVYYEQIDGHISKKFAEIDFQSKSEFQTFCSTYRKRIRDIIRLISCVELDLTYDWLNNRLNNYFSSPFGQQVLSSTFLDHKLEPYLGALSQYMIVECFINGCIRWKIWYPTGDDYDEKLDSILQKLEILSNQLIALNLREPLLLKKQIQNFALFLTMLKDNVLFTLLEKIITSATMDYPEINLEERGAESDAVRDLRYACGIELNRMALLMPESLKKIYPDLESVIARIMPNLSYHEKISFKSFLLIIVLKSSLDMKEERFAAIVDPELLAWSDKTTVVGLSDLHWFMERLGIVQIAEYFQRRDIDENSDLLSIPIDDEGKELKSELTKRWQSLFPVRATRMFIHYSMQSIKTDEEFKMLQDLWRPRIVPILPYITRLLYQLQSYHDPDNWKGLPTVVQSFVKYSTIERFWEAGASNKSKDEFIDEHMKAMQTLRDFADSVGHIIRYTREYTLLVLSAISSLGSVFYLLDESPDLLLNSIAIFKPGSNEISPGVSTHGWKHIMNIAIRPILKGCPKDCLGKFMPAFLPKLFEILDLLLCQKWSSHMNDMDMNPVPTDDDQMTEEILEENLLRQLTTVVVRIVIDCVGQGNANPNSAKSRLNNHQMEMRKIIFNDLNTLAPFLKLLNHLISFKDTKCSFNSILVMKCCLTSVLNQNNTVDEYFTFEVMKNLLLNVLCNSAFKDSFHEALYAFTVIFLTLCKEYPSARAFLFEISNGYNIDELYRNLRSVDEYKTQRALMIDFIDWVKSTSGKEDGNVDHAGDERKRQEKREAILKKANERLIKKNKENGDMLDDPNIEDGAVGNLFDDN

B1: untagged Tef2 (natural protein, S. cerevisiae (endogenous in yeast), UniProt P02994 1-458, looked up)
chain: MGKEKSHINVVVIGHVDSGKSTTTGHLIYKCGGIDKRTIEKFEKEAAELGKGSFKYAWVLDKLKAERERGITIDIALWKFETPKYQVTVIDAPGHRDFIKNMITGTSQADCAILIIAGGVGEFEAGISKDGQTREHALLAFTLGVRQLIVAVNKMDSVKWDESRFQEIVKETSNFIKKVGYNPKTVPFVPISGWNGDNMIEATTNAPWYKGWEKETKAGVVKGKTLLEAIDAIEQPSRPTDKPLRLPLQDVYKIGGIGTVPVGRVETGVIKPGMVVTFAPAGVTTEVKSVEMHHEQLEQGVPGDNVGFNVKNVSVKEIRRGNVCGDAKNDPPKGCASFNATVIVLNHPGQISAGYSPVLDCHTAHIACRFDELLEKNDRRSGKKLEDHPKFLKSGDAALVKFVPSKPMCVEAFSEYPPLGRFAVRDMRQTVAVGVIKSVDKTEKAAKVTKAAQKAAKK
notes: Tef2, yeast translation elongation factor 1 alpha (eEF1A), product of TEF2; Detected with anti-eEF1A; comigrates with Tef1-Myc; also called Tef1/2; eEF1A; source: endogenous, S. cerevisiae cell extract
B2: endogenously 3Myc-tagged Tef1 (natural protein, S. cerevisiae, UniProt P02994 1-458, looked up)
chain: B1 chain
notes: Tef1, yeast translation elongation factor 1 alpha (eEF1A), product of TEF1; Detected with anti-eEF1A and anti-Myc; comigrates with untagged Tef2, so the anti-eEF1A signal called Tef1/2 is of both; also called Tef1-Myc; Tef1/2; source: endogenously tagged, S. cerevisiae cell extract

Key:
[1] = biological target: T1, MORF (His6-HA epitope-ZZ protein …); experiment: co-IP; cells with locked RanGTP, formaldehyde cross-linked; extract treated with RNase A prior to purification of the beta-importin on IgG beads; Western blot with anti-eEF1A; settings: partners not purified
[2] = biological target: T1, MORF (His6-HA epitope-ZZ protein …); experiment: co-IP; cells with RanGTP-locked mutant, without cross-linking; complex immunoprecipitated on beads first and then treated with RNase A (condition R*); Western blot with anti-eEF1A; settings: partners not purified

Row | Binder | percent of copurified Tef1/2 relative to mock treatment [1] | percent of copurified Tef1/2 relative to mock treatment [2]
1 | B1 | ~90% | ~40%
2 | B2 | ~90% | ~40%
